Changes are numbered by the printed parent chain.
B1: GLS3000 T31D (antibody, name in Kabat numbering, V domains shown)
VH: QVQLVESGGGVVQPGRSLRLSCAASGFTFSNAWMHWVRQAPGKGLEWVAQIKAKSNNYATYYAESVKGRFTISRDDSKNSLYLQMNSLKTEDTAVYYCRYVHYGAYYGVDAWGQGTTVTVSS
VL: DIVMTQSPLSLPVTPGEPASISCRSSQSLVHSNRNDYLHWYQQKPGQAPRLLIYKVSNRFSGVPDRFSGSGSGTDFTLKISRVEAEDVGVYYCGQGTQVPYTFGQGTKLEIK
notes: one-arm format as m2
B2: GLS3000 V94R (antibody, name in Kabat numbering, V domains shown)
VH: B1 VH
VL: B1 VL with D36T, V99R
notes: one-arm format as m2
B3: GLS3000 V94E (antibody, name in Kabat numbering, V domains shown)
VH: B1 VH
VL: B1 VL with D36T, V99E
notes: one-arm format as m2
B4: GLS3000 T92Y (antibody, name in Kabat numbering, V domains shown)
VH: B1 VH
VL: B1 VL with D36T, T97Y
notes: one-arm format as m2
B5: GLS3000 T31N (antibody, name in Kabat numbering, V domains shown)
VH: B1 VH
VL: B1 VL with D36N
notes: one-arm format as m2
B6: GLS3000 V51D (antibody, name in Kabat numbering, V domains shown)
VH: B1 VH
VL: B1 VL with D36T, V56D
notes: one-arm format as m2
B7: GLS3000 V51I (antibody, name in Kabat numbering, V domains shown)
VH: B1 VH
VL: B1 VL with D36T, V56I
notes: one-arm format as m2
B8: GLS3000 V27cY (antibody, name in Kabat numbering, V domains shown)
VH: B1 VH
VL: B1 VL with V30Y, D36T
notes: one-arm format as m2
B9: GLS3000 V94G (antibody, name in Kabat numbering, V domains shown)
VH: B1 VH
VL: B1 VL with D36T, V99G
notes: one-arm format as m2
B10: GLS3000 V94H (antibody, name in Kabat numbering, V domains shown)
VH: B1 VH
VL: B1 VL with D36T, V99H
notes: one-arm format as m2
B11: GLS3000 T92E (antibody, name in Kabat numbering, V domains shown)
VH: B1 VH
VL: B1 VL with D36T, T97E
notes: one-arm format as m2
B12: GLS3000 V94K (antibody, name in Kabat numbering, V domains shown)
VH: B1 VH
VL: B1 VL with D36T, V99K
notes: one-arm format as m2
B13: GLS3000 V94D (antibody, name in Kabat numbering, V domains shown)
VH: B1 VH
VL: B1 VL with D36T, V99D
notes: one-arm format as m2
B14: GLS3000 V27cE (antibody, name in Kabat numbering, V domains shown)
VH: B1 VH
VL: B1 VL with V30E, D36T
notes: one-arm format as m2
B15: GLS3000 V94L (antibody, name in Kabat numbering, V domains shown)
VH: B1 VH
VL: B1 VL with D36T, V99L
notes: one-arm format as m2
B16: GLS3000 T31K (antibody, name in Kabat numbering, V domains shown)
VH: B1 VH
VL: B1 VL with D36K
notes: one-arm format as m2
B17: GLS3000 T92S (antibody, name in Kabat numbering, V domains shown)
VH: B1 VH
VL: B1 VL with D36T, T97S
notes: one-arm format as m2
B18: GLS3000 V94I (antibody, name in Kabat numbering, V domains shown)
VH: B1 VH
VL: B1 VL with D36T, V99I
notes: one-arm format as m2
B19: GLS3000 T92D (antibody, name in Kabat numbering, V domains shown)
VH: B1 VH
VL: B1 VL with D36T, T97D
notes: one-arm format as m2
B20: GLS3000 T92P (antibody, name in Kabat numbering, V domains shown)
VH: B1 VH
VL: B1 VL with D36T, T97P
notes: one-arm format as m2
B21: GLS3000 V51G (antibody, name in Kabat numbering, V domains shown)
VH: B1 VH
VL: B1 VL with D36T, V56G
notes: one-arm format as m2
B22: GLS3000 V94F (antibody, name in Kabat numbering, V domains shown)
VH: B1 VH
VL: B1 VL with D36T, V99F
notes: one-arm format as m2
B23: GLS3000 V27cP (antibody, name in Kabat numbering, V domains shown)
VH: B1 VH
VL: B1 VL with V30P, D36T
notes: one-arm format as m2
B24: GLS3000 T92A (antibody, name in Kabat numbering, V domains shown)
VH: B1 VH
VL: B1 VL with D36T, T97A
notes: one-arm format as m2
B25: GLS3000 V27cD (antibody, name in Kabat numbering, V domains shown)
VH: B1 VH
VL: B1 VL with V30D, D36T
notes: one-arm format as m2
B26: GLS3000 V94S (antibody, name in Kabat numbering, V domains shown)
VH: B1 VH
VL: B1 VL with D36T, V99S
notes: one-arm format as m2
B27: GLS3000 T31I (antibody, name in Kabat numbering, V domains shown)
VH: B1 VH
VL: B1 VL with D36I
notes: one-arm format as m2
B28: GLS3000 T31E (antibody, name in Kabat numbering, V domains shown)
VH: B1 VH
VL: B1 VL with D36E
notes: one-arm format as m2
B29: GLS3000 V94P (antibody, name in Kabat numbering, V domains shown)
VH: B1 VH
VL: B1 VL with D36T, V99P
notes: one-arm format as m2
B30: GLS3000 V51P (antibody, name in Kabat numbering, V domains shown)
VH: B1 VH
VL: B1 VL with D36T, V56P
notes: one-arm format as m2
B31: GLS3000 V94A (antibody, name in Kabat numbering, V domains shown)
VH: B1 VH
VL: B1 VL with D36T, V99A
notes: one-arm format as m2
B32: GLS3000 T92L (antibody, name in Kabat numbering, V domains shown)
VH: B1 VH
VL: B1 VL with D36T, T97L
notes: one-arm format as m2
B33: GLS3000 V94M (antibody, name in Kabat numbering, V domains shown)
VH: B1 VH
VL: B1 VL with D36T, V99M
notes: one-arm format as m2
B34: GLS3000 T92I (antibody, name in Kabat numbering, V domains shown)
VH: B1 VH
VL: B1 VL with D36T, T97I
notes: one-arm format as m2
B35: GLS3000 V51E (antibody, name in Kabat numbering, V domains shown)
VH: B1 VH
VL: B1 VL with D36T, V56E
notes: one-arm format as m2
B36: GLS3000 V27cI (antibody, name in Kabat numbering, V domains shown)
VH: B1 VH
VL: B1 VL with V30I, D36T
notes: one-arm format as m2
B37: GLS3000 V27cS (antibody, name in Kabat numbering, V domains shown)
VH: B1 VH
VL: B1 VL with V30S, D36T
notes: one-arm format as m2
B38: GLS3000 T97P (antibody, name in Kabat numbering, V domains shown)
VH: B1 VH
VL: B1 VL with D36T, T102P
notes: one-arm format as m2
B39: GLS3000 T31P (antibody, name in Kabat numbering, V domains shown)
VH: B1 VH
VL: B1 VL with D36P
notes: one-arm format as m2
B40: GLS3000 V94T (antibody, name in Kabat numbering, V domains shown)
VH: B1 VH
VL: B1 VL with D36T, V99T
notes: one-arm format as m2
B41: GLS3000 V27cL (antibody, name in Kabat numbering, V domains shown)
VH: B1 VH
VL: B1 VL with V30L, D36T
notes: one-arm format as m2
B42: GLS3000 V94N (antibody, name in Kabat numbering, V domains shown)
VH: B1 VH
VL: B1 VL with D36T, V99N
notes: one-arm format as m2
B43: GLS3000 V94Q (antibody, name in Kabat numbering, V domains shown)
VH: B1 VH
VL: B1 VL with D36T, V99Q
notes: one-arm format as m2

What follows are binders tested against CD3ε homodimer protein (human, UniProt P07766 23-126, limits assumed) (assay: SPR, immobilized CD3ε homodimer;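 also: biacore T200 surface plasmon resonance at 25 °C, antibody variants flowed as analytes over amine-coupled CD3ε homodimer on a CM4 chip, variant binding amount divided by that of GLS3000 antibody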).
CD3ε homodimer protein, sequence (P07766 23-126 limits assumed): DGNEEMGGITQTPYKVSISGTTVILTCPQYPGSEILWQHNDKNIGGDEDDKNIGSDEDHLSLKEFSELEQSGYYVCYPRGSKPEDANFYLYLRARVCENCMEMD

Binder	ratio of amounts bound (vs GLS3000)
B1	0.23
B2	0.66
B3	0.5
B4	0.33
B5	0.32
B6	0.33
B7	0.81
B8	0.77
B9	0.48
B10	0.78
B11	0.17
B12	0.57
B13	0.89
B14	0.61
B15	0.44
B16	1.04
B17	0.96
B18	0.66
B19	0.18
B20	0.26
B21	0.84
B22	0.71

Binder	ratio of amounts bound (vs GLS3000)
B23	0.3
B24	0.63
B25	0.32
B26	0.93
B27	0.97
B28	0.49
B29	1.26
B30	0.32
B31	1.05
B32	0.42
B33	0.44
B34	0.34
B35	0.64
B36	0.96
B37	0.51
B38	0.31
B39	0.31
B40	0.93
B41	0.84
B42	1.05
B43	0.76
